In the supplement of paper PMC9112550, “Optimization of the antimicrobial peptide Bac7 by deep mutational scanning” (BMC Biology, 2022):

Tested on: Escherichia coli TOP10
Assay: shrunken log2 fold change of peptide-encoding DNA abundance (4.5 h post-induction vs induction); higher = less antimicrobial activity (less host growth inhibition)
Conditions: time post-induction: 4.5 h; library: site-saturation at positions 5, 18, 19, 20
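Also: peptides expressed intracellularly from a pBAD plasmid library in pooled LB shake-flask culture, induced with 0.3% L-arabinose, DNA abundance read by NGS, three biological replicates, DESeq2 with apeglm shrinkage.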

Sequence	shrunken log2 fold change
RRIRPRPPRLPRPRPRPGFKPRP	0.13
RRIRKRPPRLPRPRPRPWCKPRP	-0.188
RRIRNRPPRLPRPRPRPIHKPRP	-0.377
RRIRWRPPRLPRPRPRPWESPRP	-0.0449
RRIRCRPPRLPRPRPRPEDIPRP	-0.12
RRIRFRPPRLPRPRPRPCFVPRP	-0.578
RRIRPRPPRLPRPRPRPPPWPRP	0.588
RRIRCRPPRLPRPRPRPTVVPRP	-0.127
RRIRLRPPRLPRPRPRPDLCPRP	0.307
RRIRRRPPRLPRPRPRPFEKPRP	-0.0125
RRIRVRPPRLPRPRPRPGCTPRP	-0.246
RRIRKRPPRLPRPRPRPTSVPRP	0.0245
RRIRIRPPRLPRPRPRPRWMPRP	0.341
RRIRIRPPRLPRPRPRPAPNPRP	0.0272
RRIRCRPPRLPRPRPRPMHAPRP	0.315
RRIRDRPPRLPRPRPRPGMYPRP	-0.00172
RRIRHRPPRLPRPRPRPGEFPRP	-0.00759
RRIRPRPPRLPRPRPRPLYLPRP	-0.625
RRIRQRPPRLPRPRPRPCMSPRP	-0.234
RRIRQRPPRLPRPRPRPNFDPRP	-0.347
RRIRRRPPRLPRPRPRPIADPRP	-0.0686
RRIRPRPPRLPRPRPRPFTWPRP	-0.236
RRIRFRPPRLPRPRPRPYNKPRP	-0.955
RRIRARPPRLPRPRPRPMLDPRP	0.504
RRIRPRPPRLPRPRPRPEHWPRP	0.226

Sequence	shrunken log2 fold change
RRIRGRPPRLPRPRPRPMVYPRP	0.438
RRIRERPPRLPRPRPRPQMYPRP	-0.337
RRIRARPPRLPRPRPRPKLQPRP	0.64
RRIRNRPPRLPRPRPRPSRSPRP	-0.076
RRIRNRPPRLPRPRPRPGLHPRP	-0.0523
RRIRQRPPRLPRPRPRPVDRPRP	-0.0864
RRIRMRPPRLPRPRPRPLWFPRP	-0.147
RRIRNRPPRLPRPRPRPWYMPRP	-0.911
RRIRSRPPRLPRPRPRPNCWPRP	0.292
RRIRNRPPRLPRPRPRPFQEPRP	-0.0276
RRIRTRPPRLPRPRPRPQPSPRP	-0.095
RRIRHRPPRLPRPRPRPSFKPRP	-0.6
RRIRPRPPRLPRPRPRPMRDPRP	0.467
RRIRQRPPRLPRPRPRPSEIPRP	-0.0356
RRIRNRPPRLPRPRPRPIMGPRP	-0.0169
RRIRIRPPRLPRPRPRPRFAPRP	0.129
RRIRVRPPRLPRPRPRPMWEPRP	0.0553
RRIRMRPPRLPRPRPRPDRLPRP	0.55
RRIRIRPPRLPRPRPRPCQVPRP	-0.0176
RRIRCRPPRLPRPRPRPPMYPRP	-0.156
RRIRNRPPRLPRPRPRPVMMPRP	-0.198
RRIRMRPPRLPRPRPRPMDTPRP	-0.00187
RRIRARPPRLPRPRPRPIWPPRP	0.353
RRIRKRPPRLPRPRPRPAFCPRP	0.422
RRIRVRPPRLPRPRPRPMDHPRP	-0.426
